Here are results for 41 sequences from the nanobody polyreactivity screen of Harvey et al. (2022).

This data set can be described thus: yeast display, Sf9 membrane polyspecificity reagent, FACS + sequencing; frameworks hold sequencing errors. An outline of the steps:
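Galactose-induced (36–48 hours) yeast carrying a synthetic nanobody display library were exposed to 10% biotinylated, detergent-solubilized Sf9 membrane reagent at 4 °C for 1 hour. FACS followed streptavidin microbead enrichment, using low and high (top ~1%) gates for expression (anti-HA) and reagent binding (streptavidin). Colony PCR, MiSeq 2 × 250 sequencing and CDR-length filtering followed. Labels for polyreactivity reflect the gate of origin.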
Consider “QVQLVESGGGLVQAGGILRISSDSSGSIFTFYAMGCYRQEPGKERELFAAISYGGGITYYADSVKGRFSISRDNAKNTVYLQMNSLKPEDTAVFYCAGDDGYYNLYFDYDYWGQGTQVTVSS”, for which the “polyreactivity (PSR sort gate)” value is listed as “low polyreactivity”.

For “QVQLVESGGGLVQAGGILRLICAASGFIFLGYALGWYRQAPGTERELVAAISSDSDKNYADSVKGRFTISRDNAKNTVYLQMNILKPEDTAVYYCIADIDSYREMDYWGQGTQVTVSS”, the “polyreactivity (PSR sort gate)” value is reported as “low polyreactivity”. For “QVQLVESGGGLVQAGGILRLRCAASGLTFVYYAMGWYRQAPGKERELVAGITSRGGRTYYADSVKGRFTISRDNAKNTVYLQMNSLKPEDTAGYYCNAVDRYNRFDYWGQGTQVTVSS” the value was “high polyreactivity”; for “QVQLVESGGGLVQAGGILRLSCAARTFVNYDMGWTRQAHGKERELVAAISSSGGSTNYADSVKGRFTISRDNAKNTVYLQMKSLKPEDTAVYYCAAASRRQVIPAMYYWGQGTQVTVSS”, “high polyreactivity”. As for “QVQLVESGGGLVQAGGILRLSCAASGFIFTYYAKGWYRQAPGKEMELVAAISWSGGSTYYADSVKGRFTISRDNAKNTVYLLMNSLKPEDTAVYYCAVDLHYSRGPRDAQYRYYYWGHGTQVTVSS”, the entry is “high polyreactivity”.

Consider “QVQLVESGGGLVQAGGILRLSCAASGFILWYYTMGWSRQAPGKERELVAAISRGGTTYYADSVKGRFTISRDTAKNTVYLQMYSLKPEDTAVYYCNAPYNTHGIVLYDYWGQGTQVTVSS”, for which the “polyreactivity (PSR sort gate)” value is “low polyreactivity”. For “QVQLVESGGGLVQAGGILRLSCAASGFTIYYYAIGWYRQAPGKERELVASITSGGSTYYADSVKGRFTISRDNAKNSVYLQMNSLKPEDTAVYYCAKTRFHYKEGDYWGQGTQVTVSS” the value was “low polyreactivity”. For “QVQLVESGGGLVQAGGILRLSCAASGGIIAINAMGWYRQAPGKERELVAAISWGDGITYYADSVKGRFTISRDNEKNTVYLQMNSLKPEDTAVYYCAADEDEYRGGDESWGQGTQVTVSS” the value was “low polyreactivity”. For “QVQLVESGGGLVQAGGILRLSCAASGGTFTYNAMGWYRQAPGKERELVAAITNGGGSTYYADSVKGRFTISRDNAKNTVYLQMNSLKPEDTAVYYCAARWWYYYTEYDYWGQGTQVTVSS” the value was “low polyreactivity”; for “QVQLVESGGGLVQAGGILRLSCAASGILVYNAMGWYIQAPGTERVLVAAISARGGRTYYADSVKGRFTISRDNAKNTVNLQMNSLKPEDTPVYYCATLETTGVNYWGQGTQVTVSS”, “high polyreactivity”; for “QVQLVESGGGLVQAGGILRLSCAASGITFPANAMGWYRQAPGKQRELVAAISSYGGSTYYADSVKGRFTISRDNAKNNVYFQMNSLKPEDTAVYYCAAYLSSLGRKYYYWGQGTQVTVSS”, “high polyreactivity”. On to “QVQLVESGGGLVQAGGILRLSCAASGRIFFPNAMGWFRQAPGKERELVASISRGTSTNYADSVKGRVTISRDNAKNTVYLQMHSLKPEDTAVYYCAAKSAPYFGGRSRYAYWGQGTQVTVSS”, for which the “polyreactivity (PSR sort gate)” value is recorded as “low polyreactivity”. As for “QVQLVESGGGLVQAGGILRLSCAASGRIFGGNAMGWYRQSPGKEREFVAAITWRGGTTYYADSVKGRFTISRDNAKNTVYLQMNSLKPEDTAVYYCNAMPYTRNTGYDYWGQGTQVTVSS”, the entry is “high polyreactivity”.

Consider “QVQLVESGGGLVQAGGILRLSCAASGRIFSRYAMGWYRQAPGKERELVAAISSSGTTTYYADSVKARFTISRDNAKNTVYLQMNSLKPEDTAVYYCAVEDRWYGPGYEYWGQGTQVTVSS”, for which the “polyreactivity (PSR sort gate)” value is on record as “high polyreactivity”. For “QVQLVESGGGLVQAGGILRLSCAASGRIFYGYAMGWYRQAPGKERELVAAISSDGRTYYADSVKGRFTISRDNAKNTVYLQLNSLKPEDTAVYYCAKVPYSGYDYVYWDPSIFEYDYWGQGTQVTVSS” the value was “low polyreactivity”; for “QVQLVESGGGLVQAGGILRLSCAASGRILTTNAMGWYRQAPGKERELVAAITRSGGRTYYADSVKGRFTISRDNAKNTVYFQMNSLKPEDTAVYYCNAVTTRLSLYDYWGQGTQVTVSS”, “high polyreactivity”; for “QVQLVESGGGLVQAGGILRLSCAASGRTFERNAMGWYRQSPGKEREFVAAITEIGGSTYYADSVKGRFTISRDNAKNTVYLQMNSLKPEDTAVYYCAKDGTYSPYDYWGQGTQVTVSS”, “low polyreactivity”.

Consider “QVQLVESGGGLVQAGGILRLSCAASGSIFAYYAMGWYRQAPGKERELVAAIDSGGGTSYADSVKGRFTISRDNAKNTVYLQMNRLKPEDTAVYYCNAAGYVVYYRIIAFGYWGQGTQVTVSS”, for which the “polyreactivity (PSR sort gate)” value was “low polyreactivity”.

With “QVQLVESGGGLVQAGGILRLSCAASGSIFPGYAMGWYRQAPGKERELVAAISTSGGSTYADSVKGRFTISRDNAKNTVYLQMNSLKPEDTAVYYCAATYTYTSPVYYSLDGPWPYDYWGQGTQVTVSS”, the “polyreactivity (PSR sort gate)” value is recorded as “low polyreactivity”. As for “QVQLVESGGGLVQAGGILRLSCAASGSIFPYYAMGWYRQAPGKERELVAGITSGTRTNYADSVKGRFTISRDNAKNTVYLQMNSLKPEDTAVYYCAKEAHIWGYPDYEYWGQGSQVTVSS”, the entry is “high polyreactivity”; as for “QVQLVESGGGLVQAGGILRLSCAASGSIFQRYVMGWYRQAPGKAREFVAGITRSGGSTYYADSVKGRFTISRDNAKNTVYLPMNSQKPEDTAVYNCAAALVRGTYKYDYWGQGTQVTFSS”, “high polyreactivity”; as for “QVQLVESGGGLVQAGGILRLSCAASGSNFRRNVMWYRQEPGKERELVAGISWRGTSTYYADSVNGRFTISRDNAKNTVYLQMNRLKPEDSAVYYCAALPFVYHRVNEFDYWGQGTQVTVSS”, “high polyreactivity”. For “QVQLVESGGGLVQAGGILRLSCAASGSTFGENAMGWYRQSPGKERELVAAISRASSTDYADSVKGRFTISRDNAKNTVYLQMNSLKPEDTAVYYCAVSIFGSFNYDFYSWGQGTQVTVSS” the value was “low polyreactivity”; for “QVQLVESGGGLVQAGGILRLSCAASGSTFTYNVMGWYRQAPGKERYLVAAISWSGGSTFYADSVKGRFTISRDNAKNTVYLQMNRLKPEDTAVYYCNKDHLVYPSEFYYWGQGTQVTVSS”, “low polyreactivity”; for “QVQLVESGGGLVQAGGILRLSCAASGSTLRTNAMGWYRQEPGKDRELVAAISTRGSSTYYADSVKGRFTISRDNAKNTVYLQMNSLQPEDTAVYYCNTAWGPRRGVNVAFDYWGQGTHVTVSS”, “low polyreactivity”. Regarding “QVQLVESGGGLVQAGGILRLSCAAYGFTFYSYSMGWYRQAPGKEREFVAAGSTYYADSVKGRFTISRDNAKNTVYLQMNSLKPEDTAVYYCAADPWIYVQSYGFWGQGTQVTVSS”, the “polyreactivity (PSR sort gate)” value was “low polyreactivity”. As for “QVQLVESGGGLVQAGGILRLSCAAYGRTFSRYGMGWYRHAPGKERQLVADITWRGDSTYYADSVKGRFTISRDNAKNTVYLQMNSLKPEDTAVYYCAVYWRSLYYGYTYDYWGQGTQVTLSS”, the entry is “high polyreactivity”; as for “QVQLVESGGGLVQAGGILRLSCASSGSIFGYYAMGWYRQAPGKERELVAAIDSGGGSTYYADSVKERFTISRDNAKNTVYFQMNSLKPEDTAVYYCAAVSYSYPSLLYEYWGQGTQVTVSS”, “low polyreactivity”. In the case of “QVQLVESGGGLVQAGGILRLSCASSGSIFVTFAMGWYRQAPGTEREFVAAINWIGGSTYYADSVKGRFTISRDNAKNTVYLQMNSLKPEDTAVYDCGKRYYRRYDYWGQGTQVTVSS”, the “polyreactivity (PSR sort gate)” value is given as “high polyreactivity”.

Consider “QVQLVESGGGLVQAGGILRLSCASSRFTFTWYAMGWYRPAPGKERELVAAISLSGDRTYYADSVKGRFTISRDNAKNTVYLQMNSLKPEDTAVYYCVFAFEYYYWGQGTQVTVSS”, for which the “polyreactivity (PSR sort gate)” value is given as “low polyreactivity”. As for “QVQLVESGGGLVQAGGILRLSCDASGRIFRANAMGWYRQAPGKERELVASITYSGGSTYYADSVKGRFTISRDNAKNTVYLPMNSLNPEDTAVYYCARAGISSGGYYYWGQGTQVTVSS”, the entry is “low polyreactivity”; as for “QVQLVESGGGLVQAGGILRLSCTASGFTLGHYAMGWYRQSPGKERELVAVITSGSSTNYADSVKGRFTISRDNAKNTVYLQMNSLKPEDTAVYYCAAEDQFFKWLYYFWGEGTQVTVSS”, “low polyreactivity”; as for “QVQLVESGGGLVQAGGILRLSSAASGLILPDYAMGWYRQAPGKERELVAAISEYAGSTYYADSVKGRFTISRDNAKNTVYLQMNSLKPEDTAVYYCAAEVWFYSWYFWYYDGEDYWGQGTQVTVSS”, “high polyreactivity”. In the case of “QVQLVESGGGLVQAGGILRLSWAASGFTFDSNAMGWYRQAPGKERELVASISSSGSTNYADCVKGRFTISRDNAKNTVDFQMNSLKPEDTAVYSCAAESRYPFIYEYWGQGTEVTVSS”, the “polyreactivity (PSR sort gate)” value is given as “low polyreactivity”. As for “QVQLVESGGGLVQAGGILRLTCAASGSIFGTYAMGWYRTPPGKERELVSAITRRSGRTYYADSVKGRFTISRDNAKNTVNLQMNCLKQEDTAVYYCAKRPVIDDDYWGQGTQETVSS”, the entry is “high polyreactivity”; as for “QVQLVESGGGLVQAGGILRVSCAASGSTFRRYAMGWSRQAPGKERELVAAIRQRGTSTYYADSVKGRFTISRDNAKNTVYLQMNSLKPEDTAVYYCAAGPSLWLFNSWGQGTQVTVSS”, “high polyreactivity”. As for “QVQLVESGGGLVQAGGILSLSCAASGIISIYYVMGWYRQAPGKERELVAAITSSGARTYYADSVKGRFTISRDNAKNTVYLQMNSLKPEDTAVYYCAAKAVHLAGYDYWGQGTQVTVSS”, the entry is “high polyreactivity”. For “QVQLVESGGGLVQAGGILSLSCAASGRIFVYYMGWYRQAPGKESELVAAISFGGGSTYYADSVKGRFTISRDNAKNTVYLQMNSLKPEDTAVYYCNADGDDLDWNYYLVQYDSWGQGTQVTVSS” the value was “low polyreactivity”; for “QVQLVESGGGLVQAGGNLRLSCASSGIIFFKYAMGWYRPEPGKERELVAAITSGGSTYYADSVKWRFTISRDNAKKTVYLQMNSLKPEDTAVYYCAAAGGRFIRYCYWGQGTQVTVSS”, “high polyreactivity”; for “QVQLVESGGGLVQAGGPLRLSCAASGRIVWNAMGWYRQAPGKEREFVASITWSVGSTYYADSVKGRFTISRDNAKNTVYLQMNSLKPEDTAVYYCAADSYSGYYYWGQGTQVTVSS”, “high polyreactivity”. For the sequence “QVQLVESGGGLVQAGGRHRLTCAASGRTVGRYAMGWYRQAPGKEREFVAAISNRVGRTYYADSVKGRFTISRDNAKNTVYLQMNSLKPEDTAVYYCAADTAHVNVNYWGQGTQVTVSS”, the “polyreactivity (PSR sort gate)” value is recorded as “high polyreactivity”.
